{
  "source": "patent US20180236031A1",
  "target": "high-affinity TrkA receptor on the TF-1 cell surface (UniProt P04629)",
  "sequence (P04629 33-796 limits assumed)": "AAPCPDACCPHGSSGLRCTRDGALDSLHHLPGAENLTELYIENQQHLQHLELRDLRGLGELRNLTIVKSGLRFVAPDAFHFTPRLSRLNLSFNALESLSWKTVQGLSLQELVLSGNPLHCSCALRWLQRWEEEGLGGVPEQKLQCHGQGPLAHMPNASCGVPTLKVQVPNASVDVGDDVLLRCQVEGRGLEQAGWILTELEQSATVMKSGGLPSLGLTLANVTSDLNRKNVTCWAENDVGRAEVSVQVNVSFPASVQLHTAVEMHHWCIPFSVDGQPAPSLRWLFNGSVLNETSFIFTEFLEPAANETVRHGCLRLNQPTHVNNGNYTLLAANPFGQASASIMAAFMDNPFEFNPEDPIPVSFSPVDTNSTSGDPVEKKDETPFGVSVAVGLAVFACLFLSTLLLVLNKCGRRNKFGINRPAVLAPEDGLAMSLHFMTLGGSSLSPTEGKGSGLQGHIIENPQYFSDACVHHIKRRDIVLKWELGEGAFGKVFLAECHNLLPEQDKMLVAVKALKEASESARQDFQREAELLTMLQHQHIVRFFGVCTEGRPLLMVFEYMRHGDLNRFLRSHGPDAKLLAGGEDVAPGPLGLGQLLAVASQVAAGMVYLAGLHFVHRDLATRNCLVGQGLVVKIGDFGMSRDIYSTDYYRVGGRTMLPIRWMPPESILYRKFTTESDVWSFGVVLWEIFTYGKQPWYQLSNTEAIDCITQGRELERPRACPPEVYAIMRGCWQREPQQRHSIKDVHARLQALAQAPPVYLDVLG",
  "test": "cell-based or functional assay",
  "data": [
    {"substance": "rhNGF-CTP (long-lasting recombinant human nerve growth factor; mature NGF-CTP) (ligand)", "values": [
      {"measurement": "specific activity in the TF-1 cell proliferation assay (MTT)", "value": "1.2e+06", "unit": "AU mg^-1"}
    ]}
  ]
}
